{
  "source": "patent US7977317B2",
  "about": "“Compositions and methods for modulating blood-brain barrier transport” (Raptor Pharmaceutical Inc., priority 2001, dated 2011)",
  "molecules": {"B1": {"name": "p97: recombinant human melanotransferrin (p97), provided by Synapse Technologies (protein, UniProt P08582 20-709, looked up)", "Melanotransferrin": "GMEVRWCATSDPEQHKCGNMSEAFREAGIQPSLLCVRGTSADHCVQLIAAQEADAITLDGGAIYEAGKEHGLKPVVGEVYDQEVGTSYYAVAVVRRSSHVTIDTLKGVKSCHTGINRTVGWNVPVGYLVESGRLSVMGCDVLKAVSDYFGGSCVPGAGETSYSESLCRLCRGDSSGEGVCDKSPLERYYDYSGAFRCLAEGAGDVAFVKHSTVLENTDGKTLPSWGQALLSQDFELLCRDGSRADVTEWRQCHLARVPAHAVVVRADTDGGLIFRLLNEGQRLFSHEGSSFQMFSSEAYGQKDLLFKDSTSELVPIATQTYEAWLGHEYLHAMKGLLCDPNRLPPYLRWCVLSTPEIQKCGDMAVAFRRQRLKPEIQCVSAKSPQHCMERIQAEQVDAVTLSGEDIYTAGKTYGLVPAAGEHYAPEDSSNSYYVVAVVRRDSSHAFTLDELRGKRSCHAGFGSPAGWDVPVGALIQRGFIRPKDCDVLTAVSEFFNASCVPVNNPKNYPSSLCALCVGDEQGRNKCVGNSQERYYGYRGAFRCLVENAGDVAFVRHTTVFDNTNGHNSEPWAAELRSEDYELLCPNGARAEVSQFAACNLAQIPPHAVMVRPDTNIFTVYGLLDKAQDLFGDDHNKNGFKMFDSSNYHGQDLLFKDATVRAVPVGEKTTYRGWLGLDYVAALEGMSSQQC"}},
  "key": {"mAb L235": {"test_system": "mAb L235", "experiment": "BIAcore analysis of native and boiled p97 on immobilized mAb L235", "assay_type": "physicochemical", "conditions": "in Ringer/Hepes solution, boiled 5 to 30 min (FIG. 13b)", "procedure": "FIG. 13 illustrates the transcytosis and accumulation of p97 and transferrin in BBCEC monolayers. FIG. 13a, Transcytosis experiments were performed at 37° C. (solid bars) or 4° C. (white bars). [^125I]-p97 or bovine [^125I]-holo-transferrin (1 mg/ml) was added to the upper side of the cell-covered filter. At the end of the experiment, radiolabelled proteins were measured in the lower chamber of each well by TCA precipitation (n=4). Controls were also performed at 37° C. with denatured [^125I]-p97 or bovine [^125I]-holo-transferrin boiled for 30 min (grey bars) (n=2); FIG. 13b, Biospecific interaction analysis was performed with native or boiled p97 for the indicated times. MAb L235 (5 μg) was immobilized on a sensor chip (SM5) using standard procedures incorporating NHS, EDC and ethanolamine. Native and boiled p97 (5 to 30 min) diluted at 1 mg/ml in Ringer/Hepes was cooled and injected into the BIAcore. The surface plasmon resonance response obtained for native p97 and boiled p97 was plotted (in relative units (RU)) as a function of time; FIG. 13c, The accumulation of both proteins into BBEC cells were also measured. Briefly, after incubation at 37° C. (solid bars) or 4° C. […] Accumulation of both denatured proteins (grey bars) was also measured at 37° C. Filters were then removed, and the radioactivity associated with the cells was quantified (n=3). […]"}, "[1]": {"test_system": "endogenous melanotransferrin", "experiment": "RT-PCR after p97 treatment in U-87 cells: endogenous melanotransferrin", "assay_type": "cell-based, human", "conditions": "RT-PCR (FIG. 36)", "procedure": "(§1) FIG. 36. Effect of p97 and RAP treatments in U-87 cells (RT-PCR) on endogenous melanotransferrin. Cells (2×105) were plated onto six-multiwell microplates and grown at 37° C. under 5% CO2 with optimal culture medium supplemented with serum for 4 days. Treatment with p97 and RAP was performed in serum free medium for 72 hours. RNA isolation and RT-PCR were performed as described in the Examples. The amplified PCR products were electrophoresed on a 2% agarose gel and visualized under ultraviolet light. (n=1).\nRNA extraction. Cells in six-wells plate or in 75 cm^2 plastic tissue culture flasks were grown at 37° C. under 5% CO2 with optimal culture medium to 80-90% confluence. Total cellular RNA was preserved in Trizol (Gibco BRL, Burlington, ON). The solution are frozen at −80° C. until extraction. The solution was defroze and mixed with 5:1 chloroform for 3 minutes at room temperature. The suspension was centrifugated at 12000 g at 4° C. The clear supernatant was collected then mixed with 1:1 of isopropanol for 15 minutes at room temperature. The mix was centrifugated at 12000×g for 10 min at 4° C. The pellets was washed with 70% ethanol and dried before resuspended in RNase Free H2O.\nRT-PCR. RT-PCR was performed for members of the LDL-R family: LRP, LRP1B, megalin, LDL, VLDL, LRP8, LR11, RAP, LR3, cubulin and P97. […]"}, "Megalin": {"test_system": "Megalin", "experiment": "RT-PCR after p97 treatment in U-87 cells: Megalin", "assay_type": "cell-based, human", "conditions": "72 hours, RT-PCR (FIG. 35)", "procedure": "as §1, with “35.” for “36.”, “(RT-PCR).” for “(RT-PCR) on endogenous melanotransferrin.”, “(2×10^5)” for “(2×105)”, “Treatment” for “Treatment with p97 and RAP”, “(n=2 for p97), (n=1 for RAP)” for “(n=1).”\nFIG. 38. Effect of p97 and RAP treatments in U-87 cells on expression of cubulin (A), P97 (B) and Megalin (C). The amplified PCR products were electrophoresed on a 2% agarose gel and visualized under ultraviolet light. (n=1). Quantification was by densitometry of p97 and RAP treatments on the RNA levels of LRP1B, LRP, LDL-R, cubilin, endogenous p97 and megalin. Results are expressed as ratios of RNA levels between control and treated U-87 cells.\nRNA extraction. Cells in six-wells plate or in 75 cm^2 plastic tissue culture flasks were grown at 37° C. under 5% CO2 with optimal culture medium to 80-90% confluence. Total cellular RNA was preserved in Trizol (Gibco BRL, Burlington, ON). The solution are frozen at −80° C. until extraction. The solution was defroze and mixed with 5:1 chloroform for 3 minutes at room temperature. The suspension was centrifugated at 12000 g at 4° C. […]"}},
  "data": [
    {"molecule": "B1", "values": [
      {"measurement": "Resistance to heat denaturation", "setting": "mAb L235", "result": "resistant to heat denaturation"},
      {"measurement": "Expression of endogenous p97", "setting": "[1]", "result": "appears to induce its own expression"},
      {"measurement": "Expression of the Megalin receptor", "setting": "Megalin", "result": "not"}
    ]}
  ]
}
